From patent US20240066137A1, “NOVEL PROTEIN CONJUGATE, AND USE THEREOF FOR PREVENTING OR TREATING NONALCOHOLIC STEATOHEPATITIS, OBESITY AND DIABETES” (ONEGENE BIOTECHNOLOGY INC., priority 2020, published 2024)

Experiments:
Assay in all cases: cell-based or functional assay
[1] = biological target: GLP-1 acceptor (UniProt P43220)
[2] = biological target: GIP acceptor (UniProt P48546)
[3] = biological target: FGFR1/KLB acceptor (UniProt P11362)
[4] = biological target: IL-1RA acceptor (UniProt P14778)
Chain of IL-1RA acceptor (P14778 18-569 limits assumed): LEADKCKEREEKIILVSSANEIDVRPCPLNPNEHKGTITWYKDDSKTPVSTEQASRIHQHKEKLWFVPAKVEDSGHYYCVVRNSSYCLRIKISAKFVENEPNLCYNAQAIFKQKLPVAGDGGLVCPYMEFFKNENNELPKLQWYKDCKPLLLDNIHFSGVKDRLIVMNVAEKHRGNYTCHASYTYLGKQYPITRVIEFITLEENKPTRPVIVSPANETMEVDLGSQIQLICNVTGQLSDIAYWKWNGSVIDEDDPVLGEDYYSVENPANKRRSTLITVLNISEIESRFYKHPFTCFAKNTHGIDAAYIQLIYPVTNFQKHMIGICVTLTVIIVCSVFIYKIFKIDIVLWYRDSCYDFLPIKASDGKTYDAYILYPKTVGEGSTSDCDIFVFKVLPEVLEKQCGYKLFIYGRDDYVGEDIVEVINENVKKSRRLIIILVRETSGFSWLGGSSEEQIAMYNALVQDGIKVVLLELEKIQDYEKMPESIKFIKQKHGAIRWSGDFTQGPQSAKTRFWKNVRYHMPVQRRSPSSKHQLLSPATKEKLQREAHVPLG

Chain of FGFR1/KLB acceptor (P11362 22-822 limits assumed, chain 1 of 2): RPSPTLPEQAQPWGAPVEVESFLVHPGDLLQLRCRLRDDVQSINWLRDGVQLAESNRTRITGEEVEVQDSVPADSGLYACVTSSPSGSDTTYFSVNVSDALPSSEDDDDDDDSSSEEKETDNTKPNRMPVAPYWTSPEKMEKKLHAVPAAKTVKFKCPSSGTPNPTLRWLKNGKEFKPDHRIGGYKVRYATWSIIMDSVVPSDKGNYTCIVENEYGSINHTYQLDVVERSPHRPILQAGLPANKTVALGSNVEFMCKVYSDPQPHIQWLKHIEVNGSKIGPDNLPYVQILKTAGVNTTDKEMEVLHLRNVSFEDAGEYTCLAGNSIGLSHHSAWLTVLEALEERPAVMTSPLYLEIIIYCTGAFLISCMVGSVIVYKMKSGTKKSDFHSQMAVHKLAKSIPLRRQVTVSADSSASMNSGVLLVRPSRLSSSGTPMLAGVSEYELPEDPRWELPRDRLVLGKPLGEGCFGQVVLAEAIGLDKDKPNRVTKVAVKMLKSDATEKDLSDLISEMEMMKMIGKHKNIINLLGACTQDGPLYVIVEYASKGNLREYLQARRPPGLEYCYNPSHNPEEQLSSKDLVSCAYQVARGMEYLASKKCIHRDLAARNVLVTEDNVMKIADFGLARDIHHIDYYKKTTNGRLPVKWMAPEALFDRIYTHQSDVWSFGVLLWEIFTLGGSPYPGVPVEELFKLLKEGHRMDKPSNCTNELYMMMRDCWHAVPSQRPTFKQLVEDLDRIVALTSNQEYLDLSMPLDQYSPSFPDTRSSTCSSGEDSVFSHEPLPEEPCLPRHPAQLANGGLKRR
Chain of FGFR1/KLB acceptor (Q86Z14 whole entry, chain 2 of 2, further chain): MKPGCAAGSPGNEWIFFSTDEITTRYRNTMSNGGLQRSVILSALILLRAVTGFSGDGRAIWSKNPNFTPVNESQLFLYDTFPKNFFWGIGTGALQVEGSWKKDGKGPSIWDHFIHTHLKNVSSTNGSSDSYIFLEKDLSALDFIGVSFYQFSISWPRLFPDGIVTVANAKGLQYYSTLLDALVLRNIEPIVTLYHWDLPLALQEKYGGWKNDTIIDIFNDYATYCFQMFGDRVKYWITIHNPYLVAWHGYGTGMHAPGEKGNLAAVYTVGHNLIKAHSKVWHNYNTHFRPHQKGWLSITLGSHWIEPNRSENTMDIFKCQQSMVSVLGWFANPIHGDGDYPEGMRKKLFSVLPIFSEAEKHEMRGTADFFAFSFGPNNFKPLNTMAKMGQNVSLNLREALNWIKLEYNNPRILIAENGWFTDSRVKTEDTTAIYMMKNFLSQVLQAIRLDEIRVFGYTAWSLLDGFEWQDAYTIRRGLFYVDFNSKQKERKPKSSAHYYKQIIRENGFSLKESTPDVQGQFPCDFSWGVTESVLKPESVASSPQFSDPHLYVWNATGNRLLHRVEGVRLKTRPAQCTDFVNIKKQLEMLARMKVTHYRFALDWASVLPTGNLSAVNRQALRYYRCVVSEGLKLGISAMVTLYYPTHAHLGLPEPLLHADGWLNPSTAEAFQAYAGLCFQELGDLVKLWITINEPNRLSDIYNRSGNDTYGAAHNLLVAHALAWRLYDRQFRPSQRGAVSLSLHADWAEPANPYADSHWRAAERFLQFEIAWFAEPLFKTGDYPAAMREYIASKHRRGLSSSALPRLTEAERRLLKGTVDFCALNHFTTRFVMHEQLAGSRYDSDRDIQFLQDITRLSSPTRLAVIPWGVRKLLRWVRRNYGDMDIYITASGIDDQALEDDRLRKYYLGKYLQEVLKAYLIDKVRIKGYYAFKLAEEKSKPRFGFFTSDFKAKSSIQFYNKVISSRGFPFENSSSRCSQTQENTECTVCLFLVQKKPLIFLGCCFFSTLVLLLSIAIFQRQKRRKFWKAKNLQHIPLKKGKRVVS
Chain of GLP-1 acceptor (P43220 24-463 limits assumed): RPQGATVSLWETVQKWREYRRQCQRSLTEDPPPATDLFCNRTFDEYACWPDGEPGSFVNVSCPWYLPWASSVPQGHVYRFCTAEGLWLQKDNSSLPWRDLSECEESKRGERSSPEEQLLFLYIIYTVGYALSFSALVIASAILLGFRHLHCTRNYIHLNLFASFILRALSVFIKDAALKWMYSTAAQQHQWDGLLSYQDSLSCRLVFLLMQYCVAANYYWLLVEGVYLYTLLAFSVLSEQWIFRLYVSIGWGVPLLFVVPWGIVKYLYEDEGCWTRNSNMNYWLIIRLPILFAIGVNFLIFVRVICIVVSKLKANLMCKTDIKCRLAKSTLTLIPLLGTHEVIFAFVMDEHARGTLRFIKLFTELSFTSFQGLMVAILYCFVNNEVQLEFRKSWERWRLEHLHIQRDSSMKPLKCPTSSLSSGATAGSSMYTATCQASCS
Chain of GIP acceptor (P48546 22-466 limits assumed): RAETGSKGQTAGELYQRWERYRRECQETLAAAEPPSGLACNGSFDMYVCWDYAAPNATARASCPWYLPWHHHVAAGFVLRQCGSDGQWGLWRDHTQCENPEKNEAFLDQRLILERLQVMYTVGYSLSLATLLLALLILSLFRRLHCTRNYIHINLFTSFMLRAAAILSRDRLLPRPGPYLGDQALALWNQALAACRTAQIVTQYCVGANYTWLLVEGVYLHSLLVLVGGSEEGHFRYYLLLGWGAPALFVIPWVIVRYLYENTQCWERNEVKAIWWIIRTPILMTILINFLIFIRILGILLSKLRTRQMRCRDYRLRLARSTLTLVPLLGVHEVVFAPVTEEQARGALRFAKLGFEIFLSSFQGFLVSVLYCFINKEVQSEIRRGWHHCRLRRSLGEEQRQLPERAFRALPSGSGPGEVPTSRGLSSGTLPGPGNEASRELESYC
Chain of Dulaglutide (Fc fusion) (chain): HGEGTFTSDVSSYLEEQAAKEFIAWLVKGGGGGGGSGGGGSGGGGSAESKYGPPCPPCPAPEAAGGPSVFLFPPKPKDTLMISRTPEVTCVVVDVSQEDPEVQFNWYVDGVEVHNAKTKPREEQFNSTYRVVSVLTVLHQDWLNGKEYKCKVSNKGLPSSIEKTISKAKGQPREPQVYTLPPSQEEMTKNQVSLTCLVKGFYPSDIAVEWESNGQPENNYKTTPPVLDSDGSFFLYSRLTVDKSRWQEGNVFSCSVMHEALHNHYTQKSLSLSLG
Chain of rhFGF21 (Native) (Q9NSA1 29-209 limits assumed): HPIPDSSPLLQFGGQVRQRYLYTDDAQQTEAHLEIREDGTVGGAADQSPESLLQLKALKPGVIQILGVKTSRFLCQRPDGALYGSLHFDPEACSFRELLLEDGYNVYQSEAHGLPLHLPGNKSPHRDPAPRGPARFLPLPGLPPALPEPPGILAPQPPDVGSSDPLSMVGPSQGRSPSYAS

Dulaglutide (Fc fusion)
EC50, cAMP accumulation assay; Mean [1]: 1.07 pM
EC50, cAMP accumulation assay; Stable cell line, n = 6 [1]: 1.45 pM
EC50, cAMP accumulation assay; run 1 [1]: 1.23 pM
EC50, cAMP accumulation assay; run 2 [1]: 0.9 pM

GIP(1-39) (from UniProt P09681 52-90) (peptide)
EC50, cAMP accumulation assay; Mean [2]: 14.8 pM
EC50, cAMP accumulation assay; run 1 [2]: 15.4 pM
EC50, cAMP accumulation assay; run 2 [2]: 14.1 pM

rhFGF21 (Native) (from UniProt Q9NSA1 29-209) (ligand)
EC50, FGFR1/KLB functional assay; Mean [3]: 0.82 nM
EC50, FGFR1/KLB functional assay; n = 4 [3]: 1.17 nM
EC50, FGFR1/KLB functional assay; run 1 [3]: 0.75 nM
EC50, FGFR1/KLB functional assay; run 2 [3]: 0.88 nM

rhIL-1RA (Native) (from UniProt P18510 26-177) (ligand)
IC50, NF-κB reporter gene luciferase assay with IL-1β; Mean [4]: 47.5 pM
IC50, NF-κB reporter gene luciferase assay with IL-1β; n = 2 [4]: 68.6 pM
IC50, NF-κB reporter gene luciferase assay with IL-1β; run 1 [4]: 39.9 pM
IC50, NF-κB reporter gene luciferase assay with IL-1β; run 2 [4]: 51.5 pM
IC50, NF-κB reporter gene luciferase assay with IL-1β; run 3 [4]: 46.6 pM
IC50, NF-κB reporter gene luciferase assay with IL-1β; run 4 [4]: 51.9 pM
